Consider one substance from publication PMC12046560.

The experiment addresses Neorhodopsin (NeoR) rhodopsin module from Rhizoclosmatium globosum, residues 1-279 (Rhizoclosmatium globosum). Description: cryo-EM structure; single-particle cryo-EM of purified NeoR in LMNG/CHS, 50 mM Hepes pH 7.4, 100 mM NaCl, after two SEC steps (monodisperse, single oligomeric state); 4.80 Å map refined under C1; two AlphaFold2 monomers fitted into the map.

As usually defined, the stoichiometry N is the number of molecules, sites or subunits per partner or assembly.

“Neorhodopsin (NeoR) rhodopsin module from Rhizoclosmatium globosum, residues 1-279 (domain or fragment)” displayed a stoichiometry N of 2.
